Here are results for two molecules from patent US20230279406A1.

The target in assay [1] is CD92 PV1-CaffVHH-L1-iCre-271C-NLS-BGHpA. In words: cell-based or functional assay.
In assay [2] the target is T1, CD246 PV1-GAI-L1-RfxCas13d-566C-NLS-BGHpA.
T1 sequence: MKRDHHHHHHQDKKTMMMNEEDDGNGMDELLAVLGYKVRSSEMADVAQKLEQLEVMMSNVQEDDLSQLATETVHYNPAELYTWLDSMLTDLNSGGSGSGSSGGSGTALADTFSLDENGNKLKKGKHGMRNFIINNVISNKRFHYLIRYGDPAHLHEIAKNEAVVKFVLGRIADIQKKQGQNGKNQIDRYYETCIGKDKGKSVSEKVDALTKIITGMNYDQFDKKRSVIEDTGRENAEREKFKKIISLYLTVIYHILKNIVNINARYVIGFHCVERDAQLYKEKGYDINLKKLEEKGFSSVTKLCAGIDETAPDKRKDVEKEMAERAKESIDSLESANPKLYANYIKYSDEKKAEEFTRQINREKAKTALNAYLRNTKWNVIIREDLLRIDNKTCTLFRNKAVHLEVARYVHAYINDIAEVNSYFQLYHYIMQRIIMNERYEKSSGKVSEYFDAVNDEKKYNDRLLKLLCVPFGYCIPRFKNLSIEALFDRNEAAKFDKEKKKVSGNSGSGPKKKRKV
Description: cell-based or functional assay.

Chain of CD92 PV1-CaffVHH-L1-iCre-271C-NLS-BGHpA (chain, as listed by the source): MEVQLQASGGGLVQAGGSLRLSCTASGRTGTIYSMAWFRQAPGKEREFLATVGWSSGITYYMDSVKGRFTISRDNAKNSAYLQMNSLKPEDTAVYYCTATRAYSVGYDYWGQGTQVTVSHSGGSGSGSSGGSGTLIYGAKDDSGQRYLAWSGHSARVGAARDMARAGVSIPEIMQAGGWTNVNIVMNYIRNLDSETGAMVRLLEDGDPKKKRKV

B1: CD91 PV1-iCre-N270-L1-CaffVHH-NLS-BGHpA (protein)
chain: MSNLLTVHQNLPALPVDATSDEVRKNLMDMFRDRQAFSEHTWKMLLSVCRSWAAWCKLNNRKWFPAEPEDVRDYLLYLQARGLAVKTIQQHLGQLNMLHRRSGLPRPSDSNAVSLVMRRIRKENVDAGERAKQALAFERTDFDQVRSLMENSDRCQDIRNLAFLGIAYNTLLRIAEIARIRVKDISRTDGGRMLIHIGRTKTLVSTAGVEKALSLGVTKLVERWISVSGVADDPNNYLFCRVRKNGVAAPSATSQLSTRALEGIFEATHRSGGSGSGSSGGSGTMEVQLQASGGGLVQAGGSLRLSCTASGRTGTIYSMAWFRQAPGKEREFLATVGWSSGITYYMDSVKGRFTISRDNAKNSAYLQMNSLKPEDTAVYYCTATRAYSVGYDYWGQGTQVTVSHPKKKRKV
In the case of B1, in assay [1], the Cre reporter expression (share of transfected cells), 25 uM caffeine for 5 hours (% of transfected cells) came to 30; the Cre reporter turned on (share of transfected cells), caffeine at least 50 uM, induction at least 5 hours (% transfected cells) was determined as 38; the Cre reporter turned on (share of transfected cells), caffeine induction, 48 hours (% transfected cells) is > 80.

B2: CD245 PV1-RfxCas13d-N565-L1-GID-NLS-BGHpA (protein)
chain: MIEKKKSFAKGMGVKSTLVSGSKVYMTTFAEGSDARLEKIVEGDSIRSVNEGEAFSAEMADKNAGYKIGNAKFSHPKGYAVVANNPLYTGPVQQDMLGLKETLEKRYFGESADGNDNICIQVIHNILDIEKILAEYITNAAYAVNNISGLDKDIIGFGKFSTVYTYDEFKDPEHHRAAFNNNDKLINAIKAQYDEFDNFLDNPRLGYFGQAFFSKEGRNYIINYGNECYDILALLSGLRHWVVHNNEEESRISRTWLYNLDKNLDNEYISTLNYLYDRITNELTNSFSKNSAANVNYIAETLGINPAEFAEQYFRFSIMKEQKNLGFNITKLREVMLDRKDMSEIRKNHKVFDSIRTKVYTMMDFVIYRYYIEEDAKVAAANKSLPDNEKSLSEKDIFVINLRGSFNDDQKDALYYDEANRIWRKLENIMHNIKEFRGNKTREYKKKDAPRLPRILPAGRDVSAFSKLMYALTMFLDGKEINDLLTTLINKFDNIQSFLKVMPLIGVNAKFVEEYAFFKDSAKIADELRLIKSFARMGEPIADARRAMYIDAIRILGTNLSYDELKSGGSGSGSSGGSGTMAASDEVNLIESRTVVPLNTWVLISNFKVAYNILRRPDGTFNRHLAEYLDRKVTANANPVDGVFSFDVLIDRRINLLSRVYRPAYADQEQPPSILDLEKPVDGDIVPVILFFHGGSFAHSSANSAIYDTLCRRLVGLCKCVVVSVNYRRAPENPYPCAYDDGWIALNWVNSRSWLKSKKDSKVHIFLAGDSSGGNIAHNVALRAGESGIDVLGNILLNPMFGGNERTESEKSLDGKYFVTVRDRDWYWKAFLPEGEDREHPACNPFSPRGKSLEGVSFPKSLVVVAGLDLIRDWQLAYAEGLKKAGQEVKLMHLEKATVGFYLLPNNNHFHNVMDEISAFVNAECPKKKRKV
Take B2: in assay [2], the mCherry knockdown with gRNA and gibberellin (drug-induced) is > 75%; the mCherry knockdown with gRNA, without gibberellin (basal) lay in the range of 10 to 20%.
